Source: US12365912 (UNIVERSITY OF FLORIDA RESEARCH FOUNDATION, dated 2025)

B1: EYFP^C-CsACD2 (other)
chain: MAVNHLCQWQYLRFQLSHPSAPACRYLSPSRPKSSTSSTAKVNCSAAPSSSPMDSHNEGRKKFMEFPYASGPVRQLMVDLVSTVENTLDSQLLPCTLPPDVQYYENQNGTAQASLQIRSGLKSSLIDFILGSWVHSELPTGAALNITSLSAYLNSSTDAPNLLIELIQSSPTSLVLILDLPPRKDLVLHPDYLHTFYESTRLDEYRQMLEKVPEVRPYFSSSLYLRCVVSPSAIMVRVDTETETGAGESTRLDYIITNHVHPVAKQVIGIWLNQCACGGRHVGESDKAYLEKRDGLIKNKTIEIDLGSSFPRLFGPQVASRVLGEIQKVFTA
notes: not shown: C-terminal fragment of EYFP (pSAT6-cEYFP-C1-B) and its linker
B2: CsACD2-EYFP^N (other)
chain: B1 chain
notes: not shown: N-terminal fragment of EYFP (pSAT6-nEYFP-C1) and its linker

How the values were obtained:
[1] = biological target: SDE15-EYFP^N ([…]_04025 without signal peptide fused to the N-terminal fragment of EYFP) (Ca. liberibacter asiaticus); experiment: BiFC in citrus leaf protoplasts (FIG. 10B)
[2] = biological target: EYFP^C-SDE15 ([…]_04025 without signal peptide fused to the C-terminal fragment of EYFP) (Ca. liberibacter asiaticus); experiment: BiFC in citrus leaf protoplasts (FIG. 10B)
EYFP^C-CsACD2 = biological target: B1; experiment: BiFC in citrus leaf protoplasts

## B1
[1]
  binding result: binds

## B2
[2]
  binding result: binds
EYFP^C-CsACD2
  binding result: no binding
